From the DeepSol protein solubility set

Test: soluble on expression in E. coli; label from the status in PepcDB or PDB records

Sequence | soluble on expression in E. coli
MGSDKIHHHHHHMDFKQVQQSFIDYIRDPQRPVPVGVPLARMQVYRELFFNNVMGFVSNGFPVLKSLYTDEQWQTLVQAFFGQHDCKSPVFIDIAGEFLDFLQFQYSPMDSDPPFMLELAHYEWLELRVATAQQDDRQELIGKEDITYRNLCLAATASVAQYQYPVQQIRPDYRPSEPLVNPVYFCLYQDEVGEVGFLQLTPLSAQVLGYLTEKGQGTFDELTQWLAATYPQMPTETLTQGCLALLEQLATKSIVRGV | not soluble
MHERHRFWQRALRLLSLGVPREASSALFGHDHSLQQETWLRSLQKEKQHIIDWHDRLTDIPFVIIDMETTGFSPEQGDEILAMAAAKTVGGVVTDAYMTLVKPEKPIPEHISALTGIEAKDVVFAPPLAEALRTFVPFIAAGVLIGYHIGHDLAFLRHALWRHYRQKWSGRFVDLQPMMTLIGHSCPTFDDALACYGICCPRRHTADGDVEAMAKLWAILLDEFRQRGIDTLHDLYAALSRC | not soluble
MGSDKIHHHHHHMTEKFNRQRAENLIAIANQFAQLGKVTAVKAFGSGNINDTFLVTLDSSKEQHFVLQRINTQVFRQPKLIMQNMRTFTEHVHKRLQHTPLNRRWEVPRVLLTKDAQDHCQDSDGSFWRAISFIEGSQSFDTMRDRSQAKEIGYALGMFHNLISDLPPEKLADTLQGFHITPLYLQHYEEVLAKTSASQSSEVNYCLQFVSDRQAFAHILENAKAEGKLPLRLMHGDPKINNVMFDTVTQQAVSVIDLDTVKPGLVHYDIGDCLRSGCNQAGEETENWESVHFDPGLCQGILQGYLSVAKAFLTENDYAYIYDAIRLIAFELGLRFFADYLAGNVYFKVKHPEHNLARAIVQFKLTESIESQETQIRNIIKDMK | not soluble
MGSDKIHHHHHHVRVDLRHISDEKKLSYSDVLWQYVKQDFLWRINNAGLGNVLWLQKPYFATGEKLAFYYVYGSPGGRAEDNGTPFDVLRNIIIGNAGLNSHSDVVWTNAELSKQAAKVSANEPDASDMQPLIHTWNLSAMCDGGEVPFAVRLERLNEADAGVPMTKNIVFMNSFYGDADVCIFSPESRLGEQLFEIMDKLELVSDMKPYGDAYEILKRYSVSGRQIIDIFKVRAKNKPKTVSMHRLEQVYGYRSYAYMRRRWERYCKRLTRQQMAYANAGWEETLDLILDFLTPVWSAFCNDEIFYDDWMPELGRFLG | not soluble
MNFRPIAGIDVGKFFSEMAILSPSNEVIARMKIRHDSSTDVERAVELLKKTEKDFDSRPFVVMESTGHYHKILFHSLYKAGFEVSVINPIQTDSIKNIGIRKVKNDKVDARKIALLYRFQELKIQYPERYGCWTLARNKACEVWYNRKGLAAALR | not soluble
MSAKEVDFERESHLHAVMCFLTGQSGEKIVSIYPHRKPATKAPSKDPQPSSSNPGQCVKPVLTSVKDPSYGFGRVDTEFDMSLGMLAYVFKTQEIACNDGFDMKINNQRFVAYPKTWKARGESTNYQISIVFALKNGCEQHTASAYQTLSNKIAVSLVMLQNYFGFLEREDKWADNAEEPNKDHPLEEFAKTSFIVQPLAEMFEEVRNRGNIHKYLINFVELGFCDEAHALTKLNVVPKGRQEIDEIVRKMKPYHGILLLEDVWPTPDANPIVAKLLSHCSPDRSILDMSTASGIPIFEVFMIIRHLLQWTRAILIYPLCNTNIYTSATSPQPLDKMAEKFTAQFGNTIHLAAGLAHFNPPKTLDTFIRKNLPLHEQGVRAKLVVALLRHQMLMQLHQFYYILKPYSIAILPEPKEPCPAEFTKIIEESTLPNDVKGVVADICAEMLETTSYASVKRTLSLFVKVAPMMDGNHHLEEIKYKNNLDRTEIEGVFVSFKLVIATFRRPDFVAE | not soluble
MGSDKIHHHHHHMLFLSGLLGVSAQRVALKNNLLYDATLTPNLALEIGVGPKMTVDLLGGVNPFKISDDHYWKHWLAQPELRYWFCEKFNGVCIGLHGHVGQMNIAGISVPPVGSIHPKSDFDDARYHRYQGWFYGGGISIGRQWILGNHWNLEASIGGGYIHFDYDKYQCVECGKKVGVDKKADYFGLTRATLSLIYLFK | not soluble
MLRKLSKFSNKGEVFMGLLEGKRALITGVANERSIAYGIAKSFHREGAQLAFTYATPKLEKRVREIAKGFGSDLVVKCDVSLDEDIKNLKKFLEENWGSLDIIVHSIAYAPKEEFKGGVIDTSREGFKIAMDISVYSLIALTRELLPLMEGRNGAIVTLSYYGAEKVVPHYNVMGIAKAALESTVRYLAYDIAKHGHRINAISAGPVKTLAAYSITGFHLLMEHTTKVNPFGKPITIEDVGDTAVFLCSDWARAITGEVVHVDNGYHIMGVFGREEEIKKEVYGD | soluble
MGSDKIHHHHHHMVDDVFGNAIASATFRTHSDSLVVDSLATVDLTASAWPVFDIAASAINYPFLYADRDGTDLGALAVQQFDDVDQRLRTWMRGFVAGEPTDTLSLLKDISLGIASSISYQSREEEGTQAPLTTLDRGWGSCRDFAVLFAEAVRSLGFGARIVSGYLFNPNRALTGSTDSGSTHAWAEVFVPGAGWITLDPTNRSMGGANLIPVAVTRDIAHAVPVSGSFIGGSNGLPVNERGRRSQSNRPGLSGAAVERWIDVAQFSRCRAAPLVLNRPEPLTR | not soluble
MGSDKIHHHHHHMSFPTIPDITPTISINRSDVINLLLASIAFEELGLAHIINAEAEKIQYILGTLSEQVPTEPPTQDDLIEINKSVNQTLRTVIKNQMLLQFKLEDLIVENPLPSITIKKYVSGDGGVTWYDADSPPGPTIDPEQVPMFRFVITNTGNVILTGVTVTDSVLGLISTGGILPPGAFFEEYRSGEYLGGDQSNTATVIGYYLDQQVEDSDVAYYTEPT | not soluble
HMPSVIVVGGQWGDEGKGSIVAYLSLHDEPEIIARGGVGTNAGHSVVINGKKYAVRQIPTGFMQTKARLLIGAGVLVDPEVFFHELEQLKDFNVKDRVGIDYRCAIIEEKHKQLDRTNGYLHGKIGTTGSGCGPANADRVMRKAKQAKDVKELEPYLTDVAQEINDALDEGSLVLVEGTQGFGLSLYYGTYPYVTSKDVTASSVAADVGIGPTRVDEVIVVFKSFPTRVGAGPFPTEMPMEEADRLGLVEYGTVTGRRRRVGWFDFEMARYSARINGATMLAVTMLDKYDKEAFGVTDYDKLPRKAKEFIEEIEERVGVPVGLIKTGPELEHIIDRRDTI | soluble
MWVEQIEKILTPRTPLILRCRNVPIPLIVSVFVECDMFDESLPISRAMKCLFVSVLCLSVGATAADAKPKIKVVNKTYSVNATTAQDLIQQMDARGPKGFWAYTDWYVKWTGGCDLSVSITYTMPKHKNEAKLDPELRKSWQSFVTALRKHEELHGAHGIQAAQEIEKSKCADGDSVIRKWSEQDKVLDQRTDHGKKDGVVLK | not soluble
MGSDKIHHHHHHMHHIGLTRPYSWGIKNFELITVTEKLNIHIQGQGFPILGLHGHPGSGRSLSVFTNHLSKRYQTIAPDLRGYGTSRFRGNFTMQDHLTDLEALLDRLQIEKCLVLGWSLGGILAMELALRLPQRITGLILVATAARPRGNHPPISWQDNLYTGVAGLLNYIKPGWRWNIETFGKRSLFRYLIQQHTPTAYNYIAREALPAYLQTSPSATRALNSALRLGYNRLADLEQIHCPSLVLAGAQDKHITADSSLETAQHLKQSQWQCYPHTAHLFPWEIPQQVINDIDLWLANNSQVMSN | not soluble
MDPDNRVRQRAVKTLGKRGNPDVLEDLMEALKDSRQPVQEAASEALRKIIAASDSVPVLVKALDATDRNVRKAAIEALWKAGTPEAIPPLLRELDDADWYLRSRAADALADIASPEAALGLIKVMDIHDSPVKKIIVNALGKIGTVEAVEGLVKALEDLEHHHHHH | soluble
MGSDKIHHHHHHMLDDIKKTLWATADKQRANMDAAEYKHIVLGLIFLKYISDTFAGRRAELTRRFADENDEYFLRECDDELLAEELEDRDYYREVNVFWVPETARWESLRSAAKQTDIGKRIDEALAEIEAENPKLKGILDKRYARSQLPDGKLGELVDLISTIGFGEDASHARDVLGQVYEYFLGQFASAEGKKGGQFYTPASIVKTLVAVLAPHHGKVYDPCCGSGGMFVQSEKFIEAHGGKLGDVSIYGQESNPTTWRLAAMNLAIRGIDYNLGREPADTFVRNQHPDLRADFVLANPPFNVSDWWHGSLEGDPRWVYGTPPQGNANYAWLQHMLYHLKPNGRAGIVLANGSMSSSQNSEGDIRRAMVDADVVEVMVALPGQLFFNTQIPACLWFLAKQKTTRKGEVLFIDARKLGSMISRVQTELTDEIIERIANTVAAWRGEAIDGVGEYADVPGYCRSVKLAEIAEHGHVLTPGRYVGAEKVEDDDEAFVEKMQKLTEMLGEQMAKGAELDQLIRQKLGGMGYEF | not soluble
MAEQQPSKEEKKEDKKDEKEEELPAPSVQQSIRQLPKIQITDDDKGEQLPECTEGEWDASDEPFSAELLNVKNAPNKVSVFSGPYRSKETIEKIKKFRAAMPPVIPIIDERPDKLAQMMSRIFSEIIDGRDLSKIKVFFFIK | not soluble
MPLENVMTDLKASSLRALKLMDLTTLNDDDTNEKVIALCHQAKTPVGNTAAICIYPRFIPIARKTLKEQGTPDIRIATVTNFPHGNDDIDIALAETRAAIAYGADEVDVVFPYRALIAGNEQVGFDLVKACKDACAAANVLLKVIIETGELKEEALIRKASEISIKAGADFIKTSTGKVPVNATPESARIMMEVIRDMGVSKTVGFKPAGGVRTAEDAQKFLAIADELFGADWADSRHYRFGASSLLASLLKALGHGDGKSASSY | not soluble
MGTTSSQSKTLYQKLYDAHIVHEAPNETPLLYIDRHLVHEVTSPQAFDGLRAMGRPVRQPGKTFATMDHNVSTQTKDINASGEMARIQMQELIKNCAEFGVSLYDLNHPFQGIVHVIGPEQGMTLPGMTIVCGDSHTATHGAFGSLAFGIGTSEVEHVLATQTLKQGRAKTMRIEVNGTVGAGITAKDIVLAIIGKTGSAGGTGHVVEFCGSAIEALSMEGRMTLCNMAIEMGAKAGLVAPDDTTFAYLKGRQFAPTGEQWEQGVAYWRTLKSDADAQFDTIVTLDAADIAPQVTWGTNPGQVIAVNQIIPAPESFSDPVERASAEKALAYMDLRPGIKLTEVAIDKVFIGSCTNSRIEDLRAAAAIAQGRKVAKGVQAIVVPGSGPVKAQAEAEGLDKIFIAAGFEWRLPGCSMCLAMNNDRLEPGERCASTSNRNFEGRQGRGGRTHLVSPAMAAAAAVSGHFADVRELSATTH | not soluble
MLIGVISDTHIPDRASEIPEAVFDAFRDVELILHAGDLTSPDILTELETLAPVECVQGNMDRHYGIETPRSRLFEIESFRVGLIHGEVYPRGDTQQLRYLGLELGADVLISGHTHQPFIRELEDMVLLNPGSPTVPRLTDPSVMVLRIDGEKLDAEIIRTGAPVCRSLNFRR | not soluble
MSPMRIGLVCIRGSVPAFENFGFLPTDIVGSNGLVNGSRAHRVLDGIIIPGGSIVESGSLSPELAFEIRRMASDGKFVLGICSGFQALAERTDIGRKSPCPVYREGLGLLNVTFHPMISNDRVEATITGESFLTSGMSGERITGFHCHTYGEIRGDAPEIMKSRIVRADYHERPGEILSGVCSDDGNVAGTMVHGCLDENQTLVSNILKFLDADETARERILEANRKLREALRSELGISTGIRVMDRGGTRGTPPAIMIASTGSDSGKTFILTGLAGALRRRGLRVGVIKVGPDVRDIVPALYLIKEPMEEHSSIRIGRLGWMELRDVLESVRGRYDIILIEGVMSILTGLLNDITPYSGAEIALAAGIPLIMVAGCSKGGIESAVVDLDAHISVLEGLGLEVSCGILNRVYDMDIFERASGGRYLAIPRVEMSERGGTPEVEIKLEDFCLKAMETVEEHLDVDTLISFAKKPEFRGYMGPEEIKKVFSPLEHHHHHH | not soluble
